Experiment [1] deals with T1, soluble ectodomain of human aminopeptidase N (hAPN), residues 66–967, WT (human, UniProt P15144 66-967). Kind of experiment: SPR. Conditions: both partners purified.
The target in experiment [2] is T1, soluble ectodomain of human …. The experiment is described as follows: SPR. The following applies: both partners purified. The source holds these as a separate data set.

The Kd is a measure of binding affinity in units of concentration. Broadly, the koff is the rate constant with which the complex falls apart. The kon is the rate constant with which the complex forms.

T1 sequence (P15144 66-967): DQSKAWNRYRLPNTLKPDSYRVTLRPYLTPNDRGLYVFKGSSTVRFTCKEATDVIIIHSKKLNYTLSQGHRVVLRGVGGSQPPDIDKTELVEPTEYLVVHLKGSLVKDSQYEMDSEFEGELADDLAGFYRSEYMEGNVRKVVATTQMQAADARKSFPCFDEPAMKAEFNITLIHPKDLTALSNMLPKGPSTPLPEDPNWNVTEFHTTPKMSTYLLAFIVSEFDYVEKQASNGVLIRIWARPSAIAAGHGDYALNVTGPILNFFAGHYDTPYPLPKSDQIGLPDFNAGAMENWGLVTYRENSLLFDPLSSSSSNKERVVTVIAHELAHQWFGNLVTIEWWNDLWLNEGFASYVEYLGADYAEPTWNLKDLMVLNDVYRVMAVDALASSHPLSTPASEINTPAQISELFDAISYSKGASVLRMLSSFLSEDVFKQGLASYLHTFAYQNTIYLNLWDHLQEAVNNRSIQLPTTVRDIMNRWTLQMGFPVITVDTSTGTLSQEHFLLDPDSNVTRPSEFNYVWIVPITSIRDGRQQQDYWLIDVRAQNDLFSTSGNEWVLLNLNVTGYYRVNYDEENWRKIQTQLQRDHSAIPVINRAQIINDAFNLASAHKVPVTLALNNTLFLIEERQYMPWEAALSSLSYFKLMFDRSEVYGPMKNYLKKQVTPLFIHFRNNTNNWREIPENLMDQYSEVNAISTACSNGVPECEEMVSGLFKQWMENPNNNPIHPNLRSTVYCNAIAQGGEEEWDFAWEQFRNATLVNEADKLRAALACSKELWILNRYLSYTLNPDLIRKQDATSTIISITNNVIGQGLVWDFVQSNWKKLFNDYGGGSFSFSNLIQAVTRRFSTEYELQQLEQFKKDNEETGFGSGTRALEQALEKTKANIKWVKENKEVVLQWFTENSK

B1: HCoV-229E S-protein S1 region, residues 17–560, WT (domain or fragment)
chain: QTTNGLNTSYSVCNGCVGYSENVFAVESGGYIPSDFAFNNWFLLTNTSSVVDGVVRSFQPLLLNCLWSVSGLRFTTGFVYFNGTGRGDCKGFSSDVLSDVIRYNLNFEENLRRGTILFKTSYGVVVFYCTNNTLVSGDAHIPFGTVLGNFYCFVNTTIGNETTSAFVGALPKTVREFVISRTGHFYINGYRYFTLGNVEAVNFNVTTAETTDFCTVALASYADVLVNVSQTSIANIIYCNSVINRLRCDQLSFDVPDGFYSTSPIQSVELPVSIVSLPVYHKHTFIVLYVDFKPQSGGGKCFNCYPAGVNITLANFNETKGPLCVDTSHFTTKYVAVYANVGRWSASINTGNCPFSFGKVNNFVKFGSVCFSLKDIPGGCAMPIVANWAYSKYYTIGSLYVSWSDGDGITGVPQPVEGVSSFMNVTLDKCTKYNIYDVSGVGVIRVSNDTFLNGITYTSTSGNLLGFKDVTKGTIYSITPCNPPDQLVVYQQAVVGAMLSENFTSYGFSNVVELPKFFYASNGTYNCTDAVLTYSSFGVCADGS
In the case of B1, in experiment [1], binding was characterised by a dissociation constant (Kd) of 1630 nM, the koff was found to be 0.06 s⁻¹ and the on-rate (kon) was determined as 39000 M⁻¹ s⁻¹.

B2: HCoV-229E S-protein receptor-binding domain (RBD), residues 293–435, WT (Class I) (domain or fragment)
chain: LPVYHKHTFIVLYVDFKPQSGGGKCFNCYPAGVNITLANFNETKGPLCVDTSHFTTKYVAVYANVGRWSASINTGNCPFSFGKVNNFVKFGSVCFSLKDIPGGCAMPIVANWAYSKYYTIGSLYVSWSDGDGITGVPQPVEGV
In experiment [1], B2 gave a Kd of 430 nM, a koff of 0.16 s⁻¹ and a kon of 360000 M⁻¹ s⁻¹. Further, in experiment [2], the Kd stood at 434 nM, the koff stood at 0.16 s⁻¹ and the on-rate (kon) turned out to be 360000 M⁻¹ s⁻¹.

These data come from article PMC5701055 (Nature Communications, 2017).
